{"source": "paper PMC4655355", "about": "“Structural insights into YfiR sequestering by YfiB in Pseudomonas aeruginosa PAO1” (Scientific Reports, 2015)", "molecules": {"B1": {"name": "YfiB(27–168) (domain or fragment)", "chain": "QTKPPQTGLSAEQIAVLQEQGFELRDEGWEFGMSSKVLFGNNLDRLNPDSRNTLTKIARALLAVDIDKVRLEGHTDNYGDEGYNQKLSERRAESVAAVFREAGMPAANIEVRGLGMSKPVADNKTRAGRSENRRVAIIVPAE", "notes": "signal peptide 1-25 and lipid acceptor Cys26 left out; cloned in pGEX-6p-1; GST removed with PPase on the resin; also called PA1119; longer YfiB construct; source: E. coli, purified (GST column, Hitrap Q, Superdex75)"}, "B2": {"name": "YfiB(59–168) (domain or fragment)", "chain": "MSSKVLFGNNLDRLNPDSRNTLTKIARALLAVDIDKVRLEGHTDNYGDEGYNQKLSERRAESVAAVFREAGMPAANIEVRGLGMSKPVADNKTRAGRSENRRVAIIVPAE", "notes": "cloned in pET-32a; tag removed with PPase on the resin; also called shorter YfiB construct; source: E. coli, purified (Ni-NTA, Hitrap S, Superdex75)"}, "B3": {"name": "YfiR(C71S) (domain or fragment)", "chain": "DDARTSIEQRSNAVSQVLLGIFSYVRWPKEPAVLQLSVVGPTEYADGLLRGMVQANGRRVHAERRAVDNPDLGTLCNVIYLGVVDERERQQVFRSLAGHPVLSISERGTECSVGSMFCLNVGGPRITFEANLDSIARSGVRVHPSVLKLARRQATP", "notes": "YfiR (PA1121) of Pseudomonas aeruginosa PAO1, residues 35-190, with C71S; the methods describe only the wild-type construct; also called C71S mutant of YfiR; not shown: Trx, N-terminal, cleaved"}, "B4": {"name": "YfiR (residues 35–190) (domain or fragment)", "chain": "B3 chain with S37C", "notes": "YfiR (PA1121) of Pseudomonas aeruginosa PAO1, residues 35-190; the N-terminal 34 residues (signal peptide) left out; cloned in pET-32a; purified on Ni-NTA, tag removed with PPase; also called PA1121; wild-type YfiR; source: E. coli, purified (Ni-NTA, ResourceS, Superdex75); not shown: Trx, N-terminal, cleaved"}}, "key": {"[1]": {"molecular_target": "YfiB W55L (Pseudomonas aeruginosa PAO1) (UniProt Q9I4L6)", "experiment": "AUC; single purified proteins, 400 μL at 3 mg ml^-1 in 20 mM Tris-HCl, 200 mM NaCl; 42,000 rpm, 277 K, interference detection; SEDFIT"}, "[2]": {"molecular_target": "the molecule itself", "experiment": "AUC; single purified proteins, 400 μL at 3 mg ml^-1 in 20 mM Tris-HCl, 200 mM NaCl; 42,000 rpm, 277 K, interference detection; SEDFIT"}, "YfiR (residues 35–190)": {"molecular_target": "B4", "experiment": "AUC; YfiB-YfiR complex at 10 mg ml^-1 in 20 mM Tris-HCl, 200 mM NaCl; 42,000 rpm, 277 K, interference detection; SEDFIT", "conditions": "both partners purified"}, "YfiR(C71S)": {"molecular_target": "B3", "experiment": "crystal structure; YfiR(C71S)-YfiB(59–168) complex, 1.97 Å; proteins mixed 1:1; 0.1 M HEPES pH 7.5, 1.8 M ammonium sulfate, 293 K", "conditions": "both partners purified"}, "[3]": {"molecular_target": "the molecule itself", "experiment": "crystal structure; YfiR(C71S)-YfiB(59–168) complex, 1.97 Å; proteins mixed 1:1; 0.1 M HEPES pH 7.5, 1.8 M ammonium sulfate, 293 K"}, "[4]": {"molecular_target": "the molecule itself", "experiment": "AUC; YfiB-YfiR complex at 10 mg ml^-1 in 20 mM Tris-HCl, 200 mM NaCl; 42,000 rpm, 277 K, interference detection; SEDFIT"}}, "note": "Where a chain is given by its changes, count along the chain named. Names may count otherwise.", "data": [{"molecule": "YfiB W55L (from UniProt Q9I4L6 27-168) (domain or fragment)", "values": [{"measurement": "stoichiometry N", "setting": "[1]", "value": 2}]}, {"molecule": "B1", "values": [{"measurement": "stoichiometry N", "setting": "[2]", "value": 2}]}, {"molecule": "B2", "values": [{"measurement": "stoichiometry N", "setting": "YfiR (residues 35–190)", "value": "1 YfiB per YfiR (2:2)"}, {"measurement": "binding result", "setting": "YfiR(C71S)", "value": "binds"}]}, {"molecule": "B3", "values": [{"measurement": "binding result", "setting": "[3]", "value": "binds"}]}, {"molecule": "B4", "values": [{"measurement": "stoichiometry N", "setting": "[4]", "value": 2}]}]}
